Experiments:
[1] = target: T1, human CD20 on Raji B lymphoma cells (human, UniProt P11836 1-297); experiment: flow cytometry on Raji cells, direct immunofluorescence with A488-labeled Ab, MFI against concentration, 5PL fit [panel A]
T1 construct: whole, on cells; also called hCD20
T1 sequence (looked up): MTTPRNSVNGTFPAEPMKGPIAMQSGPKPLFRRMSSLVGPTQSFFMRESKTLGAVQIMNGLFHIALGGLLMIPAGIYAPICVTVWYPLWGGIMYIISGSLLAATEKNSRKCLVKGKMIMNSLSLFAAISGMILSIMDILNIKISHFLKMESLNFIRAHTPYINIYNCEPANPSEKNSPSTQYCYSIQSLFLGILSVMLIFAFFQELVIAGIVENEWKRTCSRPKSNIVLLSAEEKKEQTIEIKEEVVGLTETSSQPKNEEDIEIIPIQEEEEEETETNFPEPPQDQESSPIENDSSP
Method: Raji cells were incubated with A488-labeled anti-hCD20 Abs followed by washing and flow cytometric analysis using a BD LSRFortessa X-20 instrument. The median fluorescence intensities (MFIs) of Ab-coated cells were determined using FlowJo software and fitted to an asymmetric sigmoidal 5PL curve using GraphPad Prism. Data are the mean±SD of duplicate measurements and are from one of two independent, representative experiments.

[2] = target: T1, human CD20 on Raji B lymphoma cells; experiment: flow cytometry on Raji cells, indirect immunofluorescence (Atto 488-labeled anti-human Fc secondary Ab), median fluorescence intensity
Method: Median fluorescence intensities (MFIs) from histograms calculated using FlowJo software were used to generate the binding curves in FIG. 8. The identity and concentration of the Ab and calculated MFI is shown in the insets of histograms.
(§1) Binding of anti-hCD20 mAbs to Raji cells: Anti-hCD20 Abs diluted in DPBS/1% bovine serum albumin (BSA) were incubated with 6×10⁵ Raji cells in V-bottom 96-well plates at 4° C. for 1 hour in a final volume of […]. […] Binding of mAbs to live single cells gated by light scatter characteristics was measured using a BD LSRFortessa X-20 flow cytometer. The binding of bacteriophage displaying the Fab portions of the chicken Abs to hCD20-transfected Chinese hamster ovary (CHO) cells was also measured (FIG. 4).

[3] = target: T2, mouse CD20 on transfected HEK293T cells (mouse, UniProt P19437 1-291); experiment: flow cytometry with Atto 488-labeled Ab on HEK293T cells transfected with pCMV5-mCD20 versus pCMV5 (mock)
T2 construct: whole, on cells; Expressed from pCMV5 mCD20 in HEK293T cells; also called mCD20; MS4A1
T2 sequence (looked up): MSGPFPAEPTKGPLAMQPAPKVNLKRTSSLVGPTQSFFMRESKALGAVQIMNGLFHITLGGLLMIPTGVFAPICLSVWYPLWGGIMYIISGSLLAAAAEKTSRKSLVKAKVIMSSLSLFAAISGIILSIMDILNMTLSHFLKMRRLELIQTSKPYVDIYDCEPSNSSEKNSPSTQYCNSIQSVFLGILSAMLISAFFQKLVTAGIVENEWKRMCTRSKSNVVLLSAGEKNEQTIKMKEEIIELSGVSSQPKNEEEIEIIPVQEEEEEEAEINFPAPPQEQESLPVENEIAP
Method: The identity of the Abs is indicated at the top. Anti-mCD20: commercially obtained anti-mCD20 Ab (eBioscience/Thermo Fisher). Data are from one of two independent, representative experiments.
Cross-reactivity of anti-hCD20 mAbs with mouse CD20: HEK293T cells in P100 tissue culture dishes were transfected at 70-90% confluency with […] pCMV5 mCD20 expression plasmid or parental pCMV5 (mock transfection) using jetOPTIMUS (Polyplus-transfection) reagent per the manufacturer's recommended protocol at a 1:1 jetOPTIMUS:DNA (L: g) ratio. Two days post transfection, the supernatant on the transfected cells was aspirated and the cells dislodged by vigorous pipetting with DPBS (HyClone). The cells were pelleted by centrifugation and the buffer replaced with 8 mL chilled blocking buffer (DPBS/10% FBS). The cells were blocked with gentle rocking at 4° C. for 30 minutes. […] of the blocked cells were transferred to individual wells of a conical-bottom 96-well plate and the cells were pelleted by centrifugation prior to incubation with […] of […] A488-labeled anti-hCD20 Abs or […] A488-labeled anti-mouse CD20 Ab (eBioscience/Thermo Fisher) at 4° C. with rocking for 1 hour. The Ab-coated cells were washed three times with cold DPBS/1% BSA and resuspended in […] DPBS/1% BSA prior to flow cytometric analysis in the FITC channel using a BD LSRFortessa X-20 cytometer. Histogram plots were generated with Flowing Software v2.5.1 (University of Turku).

[4] = target: T1, human CD20 on Raji B lymphoma cells; experiment: cell-based or functional assay
[5] = target: T1, human CD20 on Raji B lymphoma cells; experiment: flow cytometry on Raji cells, indirect immunofluorescence (Atto 488-labeled anti-human Fc secondary Ab), MFI against concentration, 5PL fit
Method: The median fluorescence intensity (MFI) of Ab-coated cells was determined using FlowJo software. Data for the lowest mAb concentration derives from cells incubated with just buffer (no Ab). […] Values are the mean±SD of duplicate measurements.
as §1

[6] = target: T1, human CD20 on Raji B lymphoma cells; experiment: flow cytometry on Raji cells (binding/hCD20 receptor occupancy), A488-labeled secondary anti-human IgG Fcγ Ab, MFI against concentration, 5PL fit
Method: The experiment was carried out by detection of bound unlabeled anti-hCD20 Abs using A488-labeled secondary anti-human IgG Fcγ Ab. Median fluorescence values from flow cytometry were obtained using FlowJo software. EC₅₀ values were generated from an asymmetric sigmoidal 5PL fit using GraphPad Prism. Data are from one of two independent, representative experiments. […] All statistical analyses were by unpaired t test.

B1: AC11 (chicken-derived anti-hCD20 mAb, chicken-human chimeric) (antibody, human IgG1, V domains shown)
VH: AVTLDESGGGLQTPGGALSLVCKASGFDFSSSYINWVRQAPGKGLEYVAQINKDGGGSWYAPVVKGRATISRDNGQSTVRLQLSNLRAEDTGIYFCAKNADSGCVGVGGCIDTWGHGTEVIVSS
VL: ALTQPSSVSANPGETVKITCSGGSYYYGGNYYYGWYQQKSPGSAPVTLIYNNNKRPSDIPSRFSGSTSGSTGTLTITGVQADDEAVYYCGGYDSSYVAIFGAGTTLTVL
modifications: Atto 488 NHS-ester label on lysines in the direct immunofluorescence and mCD20 assays (positions not defined)
notes: Chicken VH fused to human CH1 and CH2-CH3 of human IgG1; chicken VL fused to human kappa constant domain; made in Expi293F cells; also called chAC11; parental AC11
EC50 [1]: 5.7 µg/mL | MFI at 16.7 µg/mL [2]: 19000 | binding result [3]: no binding | ADCC signaling, ADCC reporter bioassay (FcgRIIIa V158 Jurkat pseudoeffector cells, Raji targets; fold over Rituximab) [4]: > 100 fold relative to Rituximab | target cell lysis, PBMC ADCC bioassay on Raji cells (fold over Rituximab) [4]: ~10 fold relative to Rituximab | EC50 [5]: 3.2 µg/mL

B2: ACR7 (chicken-derived anti-hCD20 mAb, chicken-human chimeric) (antibody, human IgG1, V domains shown)
VH: AVTLDESGGGLQTPGGALSLVCKASGFTFNSNGMGWVRQAPGKGLEWVAGIHSSGRYTYYGTAVKGRATISRDNGQSTVRLQLNDLRAEDTATYYCAKNADSAYGYWYAGSIDAWGHGTEVIVSS
VL: ALTQPSSVSANLGGTVEITCSGGYSSYGYSWHQQKSPASAPVTLIYNNNNRPSDIPSRFSGSASGSTATLTITGVQAEDEAVYYCAFTDYSSLAGVFGAGTTLTVL
modifications: Atto 488 NHS-ester label on lysines in the direct immunofluorescence and mCD20 assays (positions not defined)
notes: Chicken VH fused to human CH1 and CH2-CH3 of human IgG1; chicken VL fused to human kappa constant domain; made in Expi293F cells; also called chACR7
EC50 [1]: 7.3 µg/mL | MFI at 16.7 µg/mL [2]: 18000 | binding result [3]: no binding | ADCC signaling, ADCC reporter bioassay (FcgRIIIa V158 Jurkat pseudoeffector cells, Raji targets; fold over Rituximab) [4]: > 100 fold relative to Rituximab | target cell lysis, PBMC ADCC bioassay on Raji cells (fold over Rituximab) [4]: ~10 fold relative to Rituximab | EC50 [5]: 5.9 µg/mL

B3: AC1 (chicken-derived anti-hCD20 mAb, chicken-human chimeric) (antibody, human IgG1, V domains shown)
VH: AVTLDESGGGLQTPGGGLSLVCKASGFDFSSYAMVWVRQAPGKGLEYVGEITNYAAGSGTWYGAAVKGRATISRDNGQSTVRLQLNNLRAEDTATYYCAKGPISGSIGYLSSIDAWGHGTEVIVSS
VL: ALTQPSSVSANPGETVKITCSGGSSRYGYGWYQQKSPGSAPVTVIYWNDKRPSDIPSRFSGSKSGSTGTLTITGVRAEDEAVYYCGNYDNNDPAFGAGTTLTVL
modifications: Atto 488 NHS-ester label on lysines in the direct immunofluorescence and mCD20 assays (positions not defined)
notes: Chicken VH fused to human CH1 and CH2-CH3 of human IgG1; chicken VL fused to human kappa constant domain; made in Expi293F cells; also called chAC1
EC50 [1]: 2.5 µg/mL | MFI at 16.7 µg/mL [2]: 20000 | ADCC signaling, ADCC reporter bioassay (FcgRIIIa V158 Jurkat pseudoeffector cells, Raji targets; fold over Rituximab) [4]: > 100 fold relative to Rituximab | target cell lysis, PBMC ADCC bioassay on Raji cells (fold over Rituximab) [4]: ~10 fold relative to Rituximab | EC50 [5]: 1.8 µg/mL

B4: hAC11-10 (humanized variant of mAb AC11) (antibody, V domains shown)
VH: EVQLVESGGGLVQPGGSLRLSCKASGFTFSSSYINWVRQAPGKGLEYVAQINKDGGGSWYAPVVKGRFTISRDNAKNTVYLQMNSLRAEDTAVYYCAKNADSGCVGVGGCIDTWGQGTTVTVSS
VL: SYELTQPSSVSVSPGQTVRITCSGGSYYYGGNYYYGWYQQKPGQAPVTVIYNNNKRPSGIPERFSGSNSGNTGTLTISGVQAEDEADYYCGGYDSSYVAIFGGGTKLTVL
notes: Humanized variable regions; constant regions not restated for this variant (the parental format is human IgG1 with a human kappa constant domain)
EC50 [6]: 3.5 µg/mL

B5: Rituximab (antibody, V domains shown)
VH: QVQLQQPGAELVKPGASVKMSCKASGYTFTSYNMHWVKQTPGRGLEWIGAIYPGNGDTSYNQKFKGKATLTADKSSSTAYMQLSSLTSEDSAVYYCARSTYYGGDWYFNVWGAGTTVTVSA
VL: QIVLSQSPAILSASPGEKVTMTCRASSSVSYIHWFQQKPGSSPKPWIYATSNLASGVPVRFSGSGSGTSYSLTISRVEAEDAATYYCQQWTSNPPTFGGGTKLEIK
EC50 [1]: 5.6 µg/mL | MFI at 16.7 µg/mL [2]: 14000 | EC50 [6]: 4.5 µg/mL | EC50 [5]: 4.5 µg/mL

B6: ACR8 (chicken-derived anti-hCD20 mAb, chicken-human chimeric) (antibody, human IgG1, V domains shown)
VH: AVTLDESGGGLQTPGGALSLVCKASGFSFDRHGMFWVRQAPGKGLEWVAGIRSTGSYPKYGPAVKGRATISRDNGQSTVRLQLNNLRAEDTARYFCVRNVYIGDYDGDSIDAWGHGTEVIVSS
VL: ALTQPSSVSANLGGTVEITCSGSSSGYGSYYGWYQQKSPGSAPVTVIYENTNRPSNIPSRFSGSESGSTATLTITGVQAEDEAVYFCGSADDSGNSAIFGAGTTLTVL
modifications: Atto 488 NHS-ester label on lysines in the direct immunofluorescence and mCD20 assays (positions not defined)
notes: Chicken VH fused to human CH1 and CH2-CH3 of human IgG1; chicken VL fused to human kappa constant domain; made in Expi293F cells; also called chACR8
EC50 [1]: 2 µg/mL | MFI at 16.7 µg/mL [2]: 21000 | binding result [3]: no binding | ADCC signaling, ADCC reporter bioassay (FcgRIIIa V158 Jurkat pseudoeffector cells, Raji targets; fold over Rituximab) [4]: > 100 fold relative to Rituximab | target cell lysis, PBMC ADCC bioassay on Raji cells (fold over Rituximab) [4]: ~10 fold relative to Rituximab | EC50 [5]: 2 µg/mL
